Reference: patent US20110301073

Experiments:
Experiment in all cases: cell_activity
[1] = test system: POU5F1 TALEN 101225 (NN half repeat) (Xanthomonas sp. (engineered)); details: paired with 101125; NN half repeat
[2] = test system: POU5F1 TALEN 101229 (half repeat for G) (Xanthomonas sp. (engineered)); details: paired with 101138
[3] = test system: POU5F1 TALEN 101138 (Xanthomonas sp. (engineered)); details: paired with 101229
[4] = test system: TALEN 101126 (synthetic (Xanthomonas TALE)); details: paired with 101124
[5] = test system: POU5F1 TALEN 101125 (Xanthomonas sp. (engineered)); details: paired with 101225
[6] = test system: TALEN 101124 (synthetic (Xanthomonas TALE)); details: paired with 101126

CACCTGCAGCTGCCCAG (double strand) [101225 site]
activity [1]: 5 % NHEJ

CCCCCATTCCTAGAAGG (double strand) [101229 site]
activity [2]: 25.6 % NHEJ

CTGGGCTCTCCCAT (double strand) [101138 site]
activity [3]: 25.6 % NHEJ

GACCCTGCCTGCT (double strand) [101126 site]
activity [4]: 2.2 % NHEJ

GACCCTGCCTGCTCCT (double strand) [101125 site]
activity [5]: 5 % NHEJ

GCAGCTGCCCAGACCT (double strand) [101124 site]
activity [6]: 2.2 % NHEJ
